The values that follow come from publication PMC7119934 (Peptide Characterization and Application Protocols, 2007).

The data set deals with the molecule itself. Nature of the data set: SEC.

Consider QKQIANQFNKAISQIQESLTTTSTALGKLQDVVNQNAQALNTLVKQLSS [HRN extended (902–950)], for which the “stoichiometry N” value turned out to be 3.
